In test [1] the target is T1, extracellular domain (ECD) of human TrkA protein, N-terminal flag tag and C-terminal His tag (PHA) (human, UniProt P04629 33-423).
T1 construct: Made in 293-F cells and purified by IMAC; also called TrkA ECD protein; TrkA (ECD); not shown: flag tag at the N-terminus (after the signal peptide); His tag at the C-terminus
In words: affinity after affinity maturation; method not stated in Example 5; measured in the affinity maturation series of Example 5, not the humanization series of the 11th table.

Test [2] has as its target T1, extracellular domain (ECD) of human …. In words: BLI (Octet Red384), antibody captured on anti-human Fc AHQ tips, antigen 100 nM. On the procedure: (§1) The bio-layer interferometry (BLI) method was used to determine the affinities of the antibodies, employing Octet Red384. Briefly, anti-human Fc-coated biosensor AHQ tips (ForteBio) were put into PBS with 0.1% w/v bovine serum albumin and 0.05% Tween-20 for a minimum of 10 min in the pre-wetting plate. The purified antibodies (100 nM in PBS with 0.1% bovine serum albumin and 0.05% Tween-20 (assay buffer)) were captured on AHQ biosensors (ForteBio) at a level of about 1 nm. The loaded biosensors were washed with an assay buffer to remove any unbound protein. Then, the association rates, dissociation rates and response were measured, using an antigen of 100 nM (in PBS with 0.1% bovine serum albumin and 0.05% Tween-20).

For test [3], the target named is T2, human TrkA on CellSensor TrkA-NFAT-bla CHO-K1 cells (human, UniProt P04629 33-796).
T2 construct: whole, on cells; Bought cell line; also called cells overexpressing human TrkA
T2 sequence (P04629 33-796 limits assumed, form in doubt): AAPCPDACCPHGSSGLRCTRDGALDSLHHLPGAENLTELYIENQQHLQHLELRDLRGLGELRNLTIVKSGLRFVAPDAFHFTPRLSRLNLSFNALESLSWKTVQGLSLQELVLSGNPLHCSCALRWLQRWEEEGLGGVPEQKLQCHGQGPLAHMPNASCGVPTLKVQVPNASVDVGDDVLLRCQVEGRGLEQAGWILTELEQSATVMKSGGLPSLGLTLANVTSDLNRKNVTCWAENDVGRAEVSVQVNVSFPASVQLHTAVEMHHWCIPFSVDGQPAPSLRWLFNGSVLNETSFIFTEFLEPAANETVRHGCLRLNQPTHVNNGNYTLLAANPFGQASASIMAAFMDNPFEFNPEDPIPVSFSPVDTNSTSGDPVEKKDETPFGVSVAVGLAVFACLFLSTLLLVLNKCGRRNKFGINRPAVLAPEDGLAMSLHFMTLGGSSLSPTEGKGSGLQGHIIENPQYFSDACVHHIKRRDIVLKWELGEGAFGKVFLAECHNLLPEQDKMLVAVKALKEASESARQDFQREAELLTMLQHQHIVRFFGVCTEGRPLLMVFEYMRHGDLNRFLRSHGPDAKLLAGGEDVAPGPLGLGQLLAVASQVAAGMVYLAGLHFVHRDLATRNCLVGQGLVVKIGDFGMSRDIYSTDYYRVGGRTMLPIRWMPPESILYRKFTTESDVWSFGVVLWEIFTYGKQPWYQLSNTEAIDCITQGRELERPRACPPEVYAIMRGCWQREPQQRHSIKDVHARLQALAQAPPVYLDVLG
In words: FACS on cells expressing human TrkA (FIG. 5A).

In test [4] the target is T1, extracellular domain (ECD) of human …. In words: affinity after affinity maturation; method not stated in Example 5.
In test [5] the target is T2, human TrkA on CellSensor TrkA-NFAT-bla …. In words: cell-based or functional assay.
Test [6] deals with T1, extracellular domain (ECD) of human …. In words: BLI (Octet Red384), as in Example 4. The procedure: as §1
Two rounds of humanizations were further performed. […] In the second round, many other variants were further constructed (including several mutations in the CDR sequences). Quickchange based site-directed mutagenesis or overlap PCR were performed to create expression plasmid of new versions of 2nd round humanized antibodies. All recombinant antibodies were expressed and purified as described in Example 1, then measured antigen binding affinity using BLI technology with the Octet Red384 instrument as mentioned above. To compare the functional activity of humanized antibodies with chimeric antibodies, NFAT assay was also performed.
A general note: Biolayer interferometry detects binding as a change in optical thickness at a sensor tip.

T1 sequence (P04629 33-423): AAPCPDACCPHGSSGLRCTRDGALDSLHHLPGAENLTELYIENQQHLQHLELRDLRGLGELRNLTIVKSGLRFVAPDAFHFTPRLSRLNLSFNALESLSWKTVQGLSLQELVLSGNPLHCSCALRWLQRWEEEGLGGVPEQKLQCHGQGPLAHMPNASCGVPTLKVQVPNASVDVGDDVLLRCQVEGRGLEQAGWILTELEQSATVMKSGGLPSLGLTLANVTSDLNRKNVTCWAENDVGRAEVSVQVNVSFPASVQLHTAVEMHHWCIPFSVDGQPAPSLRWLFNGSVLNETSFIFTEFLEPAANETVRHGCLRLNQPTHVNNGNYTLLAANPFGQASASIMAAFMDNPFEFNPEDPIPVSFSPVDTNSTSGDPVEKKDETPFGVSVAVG

B1: chi-PHD49 (antibody, V domains shown)
VH: QVQLQQSGAELARPGASVKLSCKASGYTFSSYWMQWVKQRPGQGLEWIGAIYPGDDDTIYTQKFKGKATLTADKSSSTAYMQLSSLASEDSAVYYCARNYDYQAWFAYWGQGTLVTVSA
VL: QIVLTQSPALMSASPGEKVTMTCSASSSVSYMYWYQQKPRSSPKPWIYLTSNLASGVPARFSGSGSGTSYSLTISSMEAEDAATYYCQQWSSNPLTFGAGTKLELK
notes: Chimeric: human IgG4 / human kappa constant regions (pCDNA3.4-hIgG4 and pCDNA3.4-hKappa vectors)
In general, Kd refers to a measure of binding affinity in units of concentration. By koff is commonly meant the first-order rate constant of dissociation. A high value points to a short-lived complex. What is called kon is the rate constant with which the complex forms. Usually EC50 stands for the midpoint of the concentration-response curve. Take B1: the values for the Kd in test [1], in test [2] and in test [6] were 3.04 nM, 1.79 nM and 3.62 nM, respectively. The koff in test [2] was found to be 0.000603 s⁻¹; in test [4] it was 0.000665 s⁻¹; in test [6], 0.000827 s⁻¹. For the same molecule, the values for the kon in test [2], in test [4] and in test [6] were 337000 M⁻¹ s⁻¹, 219000 M⁻¹ s⁻¹ and 229000 M⁻¹ s⁻¹, respectively. The molecule also gave an EC50 in test [3] of 0.157 µg/mL. Further, the “EC50 (so labelled in the drawn table; a falling inhibition curve, the text calls this value IC50); inhibition of NGF-induced TrkA activation in TrkA-NFAT-bla CHO-K1 reporter cells” value in test [5] worked out at 0.793 nM. Further, the “Top; inhibition of NGF-induced TrkA activation in TrkA-NFAT-bla CHO-K1 reporter cells” value in test [5] worked out at 1.04 Response Ratio.

The values above are taken from US20240002516A1 (4B TECHNOLOGIES SUZHOU, published 2024).
